{"source": "patent US20240174741A1", "biological_target": "ESYT2_Frag (human) (UniProt A0FGR8)", "assay": "CDI HuProt native protein microarray (High-Spec cross-reactivity assay)"}
{"binder": "CD1-M8 (antibody, V domains shown) VH: EVQLQQSGPELVKPGASVKMSCKASGYTFTDYYIHWVKQSHGKGLEWIGYIFPNNGGNGYSQKFKGKATMTVDKSSSTAYMELRSLTSEDSAVYYCARGGYDAGFVYWGQGTLVTVSA VL: DIVMSQSPSSLAVSAGEKVTMSCKSSQSLFNSGARKNFLAWYQQKPGQSPKLLIYWASTRESGVPDRFTGSGSGTDFTLTISSVQAEDLAVYYCKQSYYLITFGAGTKLELK", "values": [{"measurement": "F635", "result": 1860}, {"measurement": "S-Score", "result": 2.15}, {"measurement": "Z-Score", "result": 5.71}]}
